Experiments:
[1] = target: T1, ParAF (F-plasmid (E. coli)) (UniProt P62556)
T1 sequence: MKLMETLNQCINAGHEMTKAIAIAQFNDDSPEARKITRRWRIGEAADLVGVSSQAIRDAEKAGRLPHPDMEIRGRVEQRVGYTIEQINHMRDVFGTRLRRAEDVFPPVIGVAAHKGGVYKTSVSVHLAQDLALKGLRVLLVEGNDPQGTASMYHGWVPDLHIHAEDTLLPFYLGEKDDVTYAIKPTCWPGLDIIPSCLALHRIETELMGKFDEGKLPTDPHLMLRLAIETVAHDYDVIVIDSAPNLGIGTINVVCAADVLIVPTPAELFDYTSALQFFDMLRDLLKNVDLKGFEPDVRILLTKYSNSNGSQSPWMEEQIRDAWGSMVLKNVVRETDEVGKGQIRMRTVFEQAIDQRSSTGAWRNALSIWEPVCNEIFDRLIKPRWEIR

[2] = target: T1, ParAF (F-plasmid (E. coli)); remark: listed apart in the source
[3] = target: EcoRI (Escherichia coli) (UniProt P00642); conditions: cited from earlier work
[4] = target: T2, ParAF-eGFP (F-plasmid (E. coli), UniProt P62556 1-388); assay: TIRF microscopy of fluorescent proteins on an nsDNA carpet; as a1, but the wash buffer contained ATPgammaS and 10 uM ParBF^1-42-mCherry or ParBF^(1-42 R36A)-mCherry; apparent rate constants; conditions: both partners purified
T2 construct: ParA ATPase of the F plasmid (ParAF, also called SopA); SGGG linker between ParAF and eGFP; concentrations and ratios are per monomer; also called SopA; source: E. coli BL21 DE3 AI, purified (HisTrap, Mono Q, S200 size exclusion)
T2 sequence (looked up): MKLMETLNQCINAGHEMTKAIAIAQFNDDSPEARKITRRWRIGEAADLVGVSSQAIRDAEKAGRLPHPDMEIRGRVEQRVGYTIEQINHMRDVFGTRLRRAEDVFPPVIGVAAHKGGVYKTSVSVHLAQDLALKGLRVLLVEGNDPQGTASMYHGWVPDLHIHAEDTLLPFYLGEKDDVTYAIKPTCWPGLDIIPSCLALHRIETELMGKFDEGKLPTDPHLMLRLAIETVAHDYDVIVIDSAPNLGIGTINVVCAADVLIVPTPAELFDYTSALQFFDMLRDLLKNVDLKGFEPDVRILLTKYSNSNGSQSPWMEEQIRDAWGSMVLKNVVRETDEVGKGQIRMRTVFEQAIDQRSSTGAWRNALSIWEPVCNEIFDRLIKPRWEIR

[5] = target: T2, ParAF-eGFP; assay: TIRF microscopy of fluorescent proteins on an nsDNA carpet; ParAF-eGFP (1 uM) and labelled ParBF variant (2 uM, or 10 uM for the 1-42-mCherry fusions) preincubated 10 min at room temperature with 1 mM ATPgammaS, infused over an nsDNA carpet, then washed with buffer containing ATPgammaS; no parSF, no C-nucleotide; 300 mM K-glutamate TIRFM buffer pH 7.5; apparent rate constants; conditions: both partners purified
[6] = target: T2, ParAF-eGFP; assay: as above; conditions: both partners purified; remark: listed apart in the source
[7] = substrate: Nc1ccn([C@@H]2O[C@H](COP(=O)(O)OP(=O)(O)OP(=O)(O)O)[C@@H](O)[C@H]2O)c(=O)n1; assay: phosphate release, MESG/purine nucleoside phosphorylase (EnzChek), initial rates; assay type: biochemical, Escherichia coli; conditions: no parSF DNA, 0.84 μM ParBF, 2 mM MgCl2, 100 mM NaCl, pH 7.5
[8] = target: T2, ParAF-eGFP; assay: TIRF microscopy of fluorescent proteins on an nsDNA carpet; as a1, with the 24 bp parSF DNA fragment (1.1 uM) in the sample; apparent rate constants; conditions: both partners purified
[9] = target: T2, ParAF-eGFP; assay: TIRF microscopy of fluorescent proteins on an nsDNA carpet; as a1, with ATPgammaS (1 mM) and CTP (2 mM), no parSF; wash with ATPgammaS and CTP; apparent rate constants; conditions: both partners purified
[10] = target: the molecule itself; assay: FRET or BRET; ParBF labelled with Alexa 488 or Alexa 594 mixed at equal concentrations, FRET efficiency in a plate reader; monomer to dimer; apparent KD
[11] = target: T2, ParAF-eGFP; assay: TIRF microscopy of fluorescent proteins on an nsDNA carpet; as a6, with CDP instead of CTP, with the 24 bp parSF fragment (1.1 uM); apparent rate constants; conditions: both partners purified
[12] = target: T2, ParAF-eGFP; assay: TIRF microscopy of fluorescent proteins on an nsDNA carpet; as a5, with CTP (2 mM) and the 24 bp parSF fragment (1.1 uM); apparent rate constants; conditions: both partners purified

Question: For ParBF^1-42-mCherry-EcoRI^E111Q, which ParAF-ATPase stimulation against ParBF^1-42-mCherry-EcoRI^E111Q concentration: KA (apparent total concentration for half-maximum stimulation); pBR322 nsDNA + EcoRI DNA fragment [1] is on record?
Answer: 0.16 µM

Question: And the ParAF-ATPase stimulation against ParBF^1-42-mCherry-EcoRI^E111Q concentration: KA (apparent total concentration for half-maximum stimulation); pBR322 nsDNA + Scram DNA [1]?
Answer: 0.16 µM

Question: What about the ParAF-ATPase stimulation against ParBF^1-42-mCherry-EcoRI^E111Q concentration: K (half) [2] of the same molecule?
Answer: 0.15 µM

Question: With EcoRI (from UniProt P00642) as the molecule, how does the Kd [3] read?
Answer: < 0.02 nM

B1: ParBF^1-42-mCherry (domain or fragment, F-plasmid (E. coli))
chain: MKRAPVIPKHTLNTQPVEDTSLSTPAAPMVDSLIARVGVMAR
notes: ParBF^1-42 fused to the N-terminus of mCherry through an SGGG linker; His6 at the C-terminus of the fusion; Monomer by gel filtration; also called monomeric ParBF^1-42-mCherry; source: E. coli BL21 DE3 AI, purified (HisTrap after lysis in 6 M guanidinium chloride, S200 size exclusion); not shown: mCherry, C-terminal, kept
Question: Which ParAF-ATPase stimulation against ParBF^1-42 concentration: KA (apparent total concentration for half-maximum stimulation); pBR322 nsDNA [1] does the source give for B1 here?
Answer: 1.2 µM

Question: What about the “apparent koff from the nsDNA carpet together with ParAF, ParBF^1-42-mCherry in the wash (ParBF signal)” value [4] of the same molecule?
Answer: 0.0148 s⁻¹

Question: And the koff [5]?
Answer: 0.105 s⁻¹

Question: What about the “stoichiometry N” value [5] of the same molecule?
Answer: 1.27 ParBF per ParAF (A:B ratio, monomers)

B2: ParBF^(1-42 R36A)-mCherry (domain or fragment, F-plasmid (E. coli))
chain: MKRAPVIPKHTLNTQPVEDTSLSTPAAPMVDSLIAAVGVMAR
notes: SGGG linker between ParBF^(1-42 R36A) and mCherry; His6 at the C-terminus of the fusion; source: E. coli BL21 DE3 AI, purified (HisTrap after lysis in 6 M guanidinium chloride, S200 size exclusion); not shown: mCherry, C-terminal, kept
Question: What does the source list for B2?
Answer: steady-state density on the DNA carpet relative to ParBF^1-42-mCherry [6]: < 10%; ParAF-ATPase stimulation against ParBF^(1-42 R36A) concentration: KA (apparent total concentration for half-maximum stimulation); pBR322 nsDNA [1]: 108 µM; apparent koff from the nsDNA carpet together with ParAF, ParBF^(1-42 R36A)-mCherry in the wash (ParBF signal) [4]: 0.03 s⁻¹; stoichiometry N [4]: 0.92 ParBF per ParAF (A:B ratio, monomers); koff [5]: 0.867 s⁻¹

B3: ParBF (Escherichia coli K-12) (protein)
chain: MKRAPVIPKHTLNTQPVEDTSLSTPAAPMVDSLIARVGVMARGNAITLPVCGRDVKFTLEVLRGDSVEKTSRVWSGNERDQELLTEDALDDLIPSFLLTGQQTPAFGRRVSGVIEIADGSRRRKAAALTESDYRVLVGELDDEQMAALSRLGNDYRPTSAYERGQRYASRLQNEFAGNISALADAENISRKIITRCINTAKLPKSVVALFSHPGELSARSGDALQKAFTDKEELLKQQASNLHEQKKAGVIFEAEEVITLLTSVLKTSSASRTSLSSRHQFAPGATVLYKGDKMVLNLDRSRVPTECIEKIEAILKELEKPAP
notes: full-length, C-terminal hexa-histidine tag kept, expressed in E. coli BL21 DE3 AI (plasmid pX8); dimer
Question: Which results are given for B3?
Answer: Km [7]: ~8 µM; kcat [7]: ~0.00389 s⁻¹

B4: ParBF (full-length), ParBF-Alexa647 (natural protein, F-plasmid (E. coli), UniProt P62558 1-323, looked up)
chain: MKRAPVIPKHTLNTQPVEDTSLSTPAAPMVDSLIARVGVMARGNAITLPVCGRDVKFTLEVLRGDSVEKTSRVWSGNERDQELLTEDALDDLIPSFLLTGQQTPAFGRRVSGVIEIADGSRRRKAAALTESDYRVLVGELDDEQMAALSRLGNDYRPTSAYERGQRYASRLQNEFAGNISALADAENISRKIITRCINTAKLPKSVVALFSHPGELSARSGDALQKAFTDKEELLKQQASNLHEQKKAGVIFEAEEVITLLTSVLKTSSASRTSLSSRHQFAPGATVLYKGDKMVLNLDRSRVPTECIEKIEAILKELEKPAP
modifications: Alexa Fluor 647 C2 maleimide label (DNA-carpet TIRFM assays); Alexa 488 or Alexa 594 label (FRET dimerisation assay)
notes: ParB of the F plasmid (ParBF, also called SopB); One molecule for the same construct with different dyes; ATPase and magnetic-tweezers results are printed for 'ParBF' without a dye; concentrations and ratios are per monomer; also called Alexa647-ParBF; WT ParBF; source: E. coli BL21 DE3 AI, purified (HisTrap, Mono S, S200 size exclusion)
Question: Which results are given for B4?
Answer: apparent koff of the ParAF-ParBF complex from the nsDNA carpet (ParBF signal), with parSF [8]: 0.0137 s⁻¹; stoichiometry N [8]: 2.17 ParBF per ParAF (A:B ratio, monomers); apparent koff of the ParAF-ParBF complex from the nsDNA carpet (ParBF signal), with CTP [9]: 0.0108 s⁻¹; stoichiometry N [9]: 2.16 ParBF per ParAF (A:B ratio, monomers); Kd [10]: ~18.5 nM; apparent koff of the ParAF-ParBF complex from the nsDNA carpet (ParBF signal) [5]: 0.0148 s⁻¹; stoichiometry N [5]: 1.1 ParBF per ParAF (A:B ratio, monomers); apparent koff of the ParAF-ParBF complex from the nsDNA carpet (ParBF signal), with CDP and parSF [11]: 0.00883 s⁻¹; stoichiometry N [11]: 2.53 ParBF per ParAF (A:B ratio, monomers); apparent koff of the ParAF-ParBF complex from the nsDNA carpet (ParBF signal), with CTP and parSF [12]: 0.0138 s⁻¹; stoichiometry N [12]: 2.16 ParBF per ParAF (A:B ratio, monomers)

B5: ParBF^R121A (natural protein, F-plasmid (E. coli), UniProt P62558 1-323, looked up)
chain: MKRAPVIPKHTLNTQPVEDTSLSTPAAPMVDSLIARVGVMARGNAITLPVCGRDVKFTLEVLRGDSVEKTSRVWSGNERDQELLTEDALDDLIPSFLLTGQQTPAFGRRVSGVIEIADGSARRKAAALTESDYRVLVGELDDEQMAALSRLGNDYRPTSAYERGQRYASRLQNEFAGNISALADAENISRKIITRCINTAKLPKSVVALFSHPGELSARSGDALQKAFTDKEELLKQQASNLHEQKKAGVIFEAEEVITLLTSVLKTSSASRTSLSSRHQFAPGATVLYKGDKMVLNLDRSRVPTECIEKIEAILKELEKPAP
modifications: Alexa Fluor 647 C2 maleimide label (fluorescently labeled ParBF^R121A)
notes: ParB of the F plasmid (ParBF, SopB) with R121A in the Box II region of the CTPase domain; ATPase results are printed without a dye; also called Box II mutant ParBF^R121A; source: E. coli BL21 DE3 AI, purified (HisTrap, Mono S, S200 size exclusion)
Question: Which “apparent koff of the ParAF-ParBF^R121A complex from the nsDNA carpet (ParBF signal), with parSF” value [8] does the source give for B5 here?
Answer: 0.013 s⁻¹

Question: And the “stoichiometry N” value [8]?
Answer: 1.12 ParBF per ParAF (A:B ratio, monomers)

Question: What about the “apparent koff of the ParAF-ParBF^R121A complex from the nsDNA carpet (ParBF signal)” value [5] of the same molecule?
Answer: 0.013 s⁻¹

Question: What about the “stoichiometry N” value [5] of the same molecule?
Answer: 0.99 ParBF per ParAF (A:B ratio, monomers)

Source: article PMC8357417, “CTP and parS coordinate ParB partition complex dynamics and ParA-ATPase activation for ParABS-mediated DNA partitioning” (eLife, 2021)
